Residue numbers refer to the chain shown, from its start. Names and notes keep the numbering of the source.
Biological target: myelin basic protein
Sequence (P02687 whole entry): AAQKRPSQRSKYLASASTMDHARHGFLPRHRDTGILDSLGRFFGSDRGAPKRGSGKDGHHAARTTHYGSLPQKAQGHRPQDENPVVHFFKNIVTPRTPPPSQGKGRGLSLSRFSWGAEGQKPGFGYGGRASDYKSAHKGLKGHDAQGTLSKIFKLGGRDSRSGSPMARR

B1: wild type protein kinase Nitab4.5_0003679 g0060.2 (SEQ ID No. 3) (protein)
chain: MAIEDNESCGSRVVDSATTSGRHQRKKLEVYNEVLRRLKESNNVEALEPGFDDELWAHFNRLPTRYAIDVNVERAEDVLTHKRLLHLAHVPANRPAFDVRLVQVASVPDGNLRDSFHSSFAKKEVSRSVHPPPAFGSSPNLEALACEAIKSEVQDEDTAAPCANFSRPMHEITFSTDDKPKLLSQLTSLLAELGLNIQEAHAFSTVDGYSLDVFVVDGWPYEEVVRLRTALEREILRNEKSWPSPSQSFIKQEQDLIKREFDHLTIPFDGIDVWEIDHQLLKFEYKIASGSYGDLYKGTYCSQDVAIKILKSERLNTELQTEFAQEVYIMRKVRHKNVVQFIGACTRPPNLCIVTEYMSGGSVYDYLHKRKGSFKLPTLLKVAIDVAKGMNYLHQNNIIHRDLKAANLLMDENEVIKVADFGVARVKAQTGVMTAETGTYRWMAPEVIEHKPYDHKADVFSFGVVLWELLTGKLPYEYLTPLQAAIGVVQKGLRPTIPKHTPPRLAELLETCWQQDPTSRPDFSEIVDILQQIAKEVGDERADRCKEKSAGGFFSALRRGHH
With B1 the “in vitro kinase reaction; phosphorylation detected by Pro-Q Diamond phosphoprotein gel stain after SDS-PAGE” value was “K308 (i.e. the wild type SEQ ID No. 3) is an active protein kinase”.

B2: K308M variant of protein kinase Nitab4.5_0003679 g0060.2 (SEQ ID No. 3) (protein)
chain: B1 chain with K308M
In the case of B2, the “in vitro kinase reaction; phosphorylation detected by Pro-Q Diamond phosphoprotein gel stain after SDS-PAGE” value is reported as “the variant K308M is not an active kinase”.

— patent publication US20220002743
